Here are results for 18 molecules from US20240059762A1 (SINGLE CELL TECHNOLOGY, published 2024).

The chains are these.
B1: SCT-Pa09 (antibody, mouse IgG1, kappa, V domains shown)
VH: QVQLQQPGAELVKPGTSVRLSCQASGYTFTSSWIHWVKQRTGQGLEWIGEISLTNGDINYNEKFTSKATLTVDKSSSTAYMQLSSLTSEDSAVYYCTIIPDGYSLYWYFDVWGAGTTVTVSS
VL: QIVLSQSPPILSASPGARVTMTCRASSSVNYMHWYQQKPGSSPKPWIYATSNLASGVPVRFSGSGSGTSYSLTISRVEAEDAATYYCQQWSSNPPTFGGGTKLEIKR
B2: SCT-Pa15 (antibody, mouse IgG1, kappa, V domains shown)
VH: QVQVKQSGPGLVQPSQSLSITCTVSGFSSTSYAIHWVRQSPGKGLEWLGVIWSGGTTDYNAAFISRLSFSKDNSKSQLFFKMNSLQADDTAMYYCARGNYYGMDYWGQGTSVTVSS
VL: DIVVTQSPASLAVSLGQRATISCRASESIDYDGDSYVNWYQQKPGQPPNLLIYAASNLESGIPARFSGGGSGTDFTLTIHPVEEEDAATYYCLQSYETPWTFGGGTKLEIKR
B3: SCT-Pa08 (antibody, mouse IgG1, kappa, V domains shown)
VH: QVQLHQSGAELVKPGASVKLSCKASGYTFTEYSIHWVKQRSGQDLEWIGWFNPGTGSIKYNEKFKDKATLTADKSSSTVYMELSRLTSEDSAVYFCARHGGRWVIQWNFDVWGTGTTVTVSS
VL: DIVMSQSPSSLAVSVGEKVTMSCKSSQNLLYSSNQKNFLAWYQQRPGQSPKLLIYWASTRESGVPDRFTGSGTGTDFTLTISSVKAEDLAVYYCQQYYRYPFTFGSGTKLEIKR
B4: SCT-Pa01 (antibody, mouse IgG1, kappa, V domains shown)
VH: QVTLKESGPGILQPSQTLSLTCSFDGFSLSTFGMGVGWIRQPSGRGLEWLAHIWWDDDKNYKPALKSRLTISKDTSKNQVFLKIANVDTADTATYYCTRMREDSSDYVYYIMDYWGQGTSVIVAS
VL: QIVLTQSPSIMSASPGEKVTISCSASSSVSYMYWYQQKPGSSPRPWIYRTSNLASGVPARFSGSGSGTSYSLTITSMEAEDAATYYCQLYHSYPPTWTFGGGTKLEIKR
B5: SCT-Pa05 (antibody, mouse IgG1, kappa, V domains shown)
VH: EVQLQQSGAELVKPGASVKLSCTTSGFNIKDYYFHWVKQRTEQGLEWIGRIDPEDGETEYAPKFRDKATITADTSSNTAYLQLSSLTSEDTAIYYCARSLYYWGQGTTLTVSS
VL: DIVMTQSPSSLSVWAGEKVTMSCKSSQSLLNSGDQKNYLTWYQQKPGQSPKLLIYETSTRDYGVPDRFTGSGSGADFTLTISSVQAEDLAVYYCLNDLTYPLTFGAGTKLELKR
B6: SCT-Pa19 (antibody, mouse IgG1, kappa, V domains shown)
VH: QVQLQQPGAELVRPGSSVKLSCKASGYTFTNYWMLWVKQRPMQGLEWIGSIDPSDSETHYNQKFKDKATLTVDKSSSTAYMRLGSLTSEDSAVYYCARDSYGWYFDVWGTGTTVTVSS
VL: DIVMTQSQKFMSTSVGDRVSVTCKASQNVGSNVAWYQQKSGQSPKALIYSASYRYSGVPDRFTGSGYGTDFTLTISNVQSEDLAEYFCQQYNNYPLTFGAGTKLELKR
B7: SCT-Pa06 (antibody, mouse IgG1, kappa, V domains shown)
VH: QVTLKESGPGILQPSQTLSLTCSFSGFSLSTYGMGVGWIRQPSGKGLEWLANIWWNDDKNYNSALKSRLTISKDTSNNQLFLRISSVDTADTATYFCAQIPAYYSNSWFAYWGHGTLVTVSA
VL: ENVLTQSPAIMAASPGEKVTMTCSASSSVSSGNFHWYQQKPGTSPKLWIYRTSNLASGVPARFSGSGSGTSYSLTISSMEAEDAATYYCQQWSGYPYTFGSGTKLKIKR
B8: SCT-Pa04 (antibody, mouse IgG1, kappa, V domains shown)
VH: EVQLQQSGPELVKPGASVKMSCKASGYSFTSYVMHWVKQKPGQGLEWIGYINPYNDGTKYNEKFKGKATLTSDKSSSTAFMDLSSLTSDDSAVYYCSRDDYSNPPFAYWGQGTLVTVSA
VL: SIVMTQTPKFLLVSAGDRITITCKASQSVSNNVAWYQQKPGQSPTLLISYASNRFTGVPDRFTGSGYGTDFTFTISIVQAEDLAVYFCQQDYDSPYTFGGGTKLEIKR
B9: SCT-Pa03 (antibody, mouse IgG1, kappa, V domains shown)
VH: QVQLKQSGAELVRPGASVKLSCKASGYTFTDYYINWVKQRPGQGLEWIARIYPGNNYAYYDEKFKGKATLTAEKSSSTAYMQLSSLTSEDSAVYFCAKDDGYRFAYWGQGTLVTVSA
VL: DIQMTQSSSYLSVSLGGRVTITCKASDHINNWLAWYQQKPGNAPRLLISGATSLETGVPSRFSGSGSGKDYTLSITSLQTEDVATYYCQQYWSTPPTFGGGTKLEIKR
B10: SCT-Pa10 (antibody, mouse IgG1, kappa, V domains shown)
VH: QVQLQQSGPELVKPGASVKISCKASGYAFSTSWMNWMKQRPGKGLEWIGRIYPGDGETNYNGKFKGKATLTADKSSSTAYMQLSSLTSDDSAVYFCARGANGDYLFYLDYWGQGTTLTVSS
VL: DIQMTQTTSSLSASLGDRVTISCSASQDISDFLNWYQQKPDGTVKLLIYYTSSLHSGVPSRFSGSGSGTDYSLTINNLEPEDIATYYCQQYSKLPYTFGGGTKLEIRR
B11: SCT-Pa18 (antibody, mouse IgG1, kappa, V domains shown)
VH: QVQLQQPGAELVKPGASVKLSCKASGYTFTSYWMQWVKQRPGQGLEWIGEIAPSDSYTNYNQKFKGKATLTVDTSSSTAYMQLSSLTSEDSAVYYCAGGDYYGYDVKTWFAYWGQGTLVTVSA
VL: DIQMTQTTSSLSASLGDRVTISCSASQDISNYLNWYQQKPDGTVKLLIYYTSSLHSGVPSRFSGSGSGTGYSLTISNLEPEDIATYYCQQYSKLPYTFGGGTKLEIKR
B12: SCT-Pa12 (antibody, mouse IgG1, kappa, V domains shown)
VH: QVQLQQSGAELARPGASVKLSCKASGYSFTSYGISWVKQRTGQGLEWIGDIYPRSGNTDYNEKFKGKATLTADKSSSTANMQLSSLTSEDSAIYFCARSGDGYLYAMDYWGQGTSVTVSS
VL: DIQMTQTTSSLSASLGDRVTISCRASQDISNYLNWYQQKPDGTVKLLIYYTSRLHSGVPSRFSGSGSGTDYSLTISNLEPEDIAPYYCQQYSKLPYTFGSGTKLEIKR
B13: SCT-Pa07 (antibody, mouse IgG1, kappa, V domains shown)
VH: EVQLQQSGPELVKPGDSVKMSCKASGYTFTDYYMDWVKQSHGKSLEWIGYIYTNNGDTNYNQKFKGKATLTVDKSSSTAYMELHSLTSEDSAVYYCASLYYSNFFDSWGQGTTLTVSS
VL: ENVLTQSPAIMSATLGEKVTVSCRARSNVKYMYWYQQKSGASPKLLIYYTSNLASGVPARFSGSGSGTSYSLTISSVEAEDAATYYCQQFTSSPFTFGSGTKLEIKR
B14: SCT-Pa14 (antibody, mouse IgG1, kappa, V domains shown)
VH: EVQLQQSGAELVSPGASVKLSCTASGFNIKDDYMHWVKQRPEQGLEWIGRIDPANGNTKYAPKFQDKATITADTSSNTAYLQLSSLTSEDTAVYYCFYSFYIPYTMDFWGQGTSVTVSS
VL: ENVLTQSPAIMSATLGEKVTMSCRASSNVKYMYWYQQKSGASPKLWIYYTSNLTSGVPARFSGSGSGTSYSLTISSVEAEDAATYYCQQFTSSPYTFGSGTKLEIKR
B15: SCT-Pa11 (antibody, mouse IgG1, kappa, V domains shown)
VH: EVQLQQSGPELVKPGASVKMSCKASGYTFTSYVIHWVKQKPGQGLEWIGYINPYNDGTEYNEKFKGKATLTSDKSSSTAYMELSSLTSEDSAVYYCSRDDYNNRFAYWGPGTLVTVSA
VL: DIQMTQSPASLSASVGETVTITCRPSENIYSYLAWYQQKQGKSPQLLVYNAKTLVEGVPSRFSGSGSGTQFSLKINSVQPEDCGSYYCLHHFGTPWTFGGGTILEIKR
B16: SCT-Pa02 (antibody, mouse IgG1, kappa, V domains shown)
VH: QMQLKQSGPGLVQPSQSLSITCTVSGFSLTSYGVHWVRQSPEKGLEWLGVIWSGGGTDYNAAFISRLSISKDNSKSQVFLKMSSLQTDDTAIYYCARGAYYSLDYWGQGTTLTVSS
VL: DIVLTQSPASLAVSLGQRATISCRASESVDYDGDNYMNWYQQKPGQSPKLLIYATSNLESRIPARFSGSGSGTEFTLNIHPVEEEDAATYYCLQSYDVPYTFGSGTKLEMKR
B17: SCT-Pa16 (antibody, mouse IgG1, kappa, V domains shown)
VH: QVQLQQPGTELVKPGASVKLSCKASGYTFTSYWMHWVKQRPGQGLEWIGSVNPSNGGANYNEKFKNKATLTVDKSSSTAYMQLSSLTSEDSAVYYCARRNGFPYYFDYWGQGTTLTVSS
VL: DIVMTQSQKFVSTSVGDRVSVTCKASQNVGTNVVWYQQKPGQSPKPLIYSASYRYSGVPDRFTGSGSGTDFTLTISNVQSEDLADYFCHQYNSSPLTFGVGTKLELKR
B18: SCT-Pa17 (antibody, mouse IgG1, kappa, V domains shown)
VH: QVQLQQPGAELVKPGASVKLSCKASGYAFTSSWINWVKRRPGQGLEWIGNVYPRSSSPNYNEKFKGKATLTVDTSSSTAYMQLSSLTSDDSAVYFCARGYGSYWYFDVWGAGTSVTVSS
VL: DIQMTQSSSSFSVSLGDRVTITCKASEDIYNRLAWYQQKPGNAPRLLISGATTLETGVPSRFSGSGSGKDYALSITSLQTEDVSTYYCQEYWSLSPTFGGGTKLEIKR

This experiment addresses T1, Recombinant SARS-CoV-2 N protein His tagged (SARS-CoV-2, UniProt P0DTC9 1-419).
T1 construct: also called nucleocapsid (N) protein; recombinant HIS tagged SARS-CoV-2 N protein
The experiment can be described thus: BLI (Octet Red 96E), mAb on anti-mouse Fc biosensor, N protein in solution, global 1:1 fit. In general terms: BLI is a label-free optical method that tracks binding on a fibre tip over time.
B1: the Kd – broadly, a measure of binding affinity in units of concentration – was 0.0531 nM; the koff – broadly, the rate constant with which the complex falls apart – was 2.67e-05 s⁻¹; the kon (usually the second-order rate constant of association) worked out at 503000 M⁻¹ s⁻¹.
As to B2, the Kd worked out at 0.994 nM, the koff turned out to be 0.000862 s⁻¹ and the kon stood at 868000 M⁻¹ s⁻¹.
B3: the Kd was 0.897 nM, the koff was found to be 0.000772 s⁻¹ and the kon turned out to be 860000 M⁻¹ s⁻¹.
The matching figures for B4: 0.181 nM, 8.01e-05 s⁻¹ and 442000 M⁻¹ s⁻¹.
The matching figures for B5: 0.289 nM, 0.00018 s⁻¹ and 624000 M⁻¹ s⁻¹.
The matching figures for B6: 0.0283 nM, 1.26e-05 s⁻¹ and 444000 M⁻¹ s⁻¹.
B7: the Kd was determined as 0.504 nM, the koff turned out to be 0.00017 s⁻¹ and the kon stood at 337000 M⁻¹ s⁻¹.
The matching figures for B8: 0.0328 nM, 1.64e-05 s⁻¹ and 498000 M⁻¹ s⁻¹.
The matching figures for B9: 2.78 nM, 0.000597 s⁻¹ and 215000 M⁻¹ s⁻¹.
The like results for B10 were, in that order, 0.335 nM, 0.000247 s⁻¹ and 738000 M⁻¹ s⁻¹.
For B11, the Kd came out at 0.228 nM, the koff was 0.000127 s⁻¹ and the kon is 557000 M⁻¹ s⁻¹.
The like results for B12 were, in that order, 0.649 nM, 0.000278 s⁻¹ and 428000 M⁻¹ s⁻¹.
The like results for B13 were, in that order, 0.188 nM, 8.63e-05 s⁻¹ and 458000 M⁻¹ s⁻¹.
The like results for B14 were, in that order, 0.128 nM, 7.23e-05 s⁻¹ and 566000 M⁻¹ s⁻¹.
B15: the Kd is 0.111 nM, the koff was determined as 5.75e-05 s⁻¹ and the kon was 517000 M⁻¹ s⁻¹.
For B16, the Kd was found to be 1 nM, the koff is 0.00073 s⁻¹ and the kon stood at 730000 M⁻¹ s⁻¹.
The like results for B17 were, in that order, 1.49 nM, 0.00154 s⁻¹ and 1.04e+06 M⁻¹ s⁻¹.
The matching figures for B18: 0.939 nM, 0.000461 s⁻¹ and 491000 M⁻¹ s⁻¹.
